According to article PMC9043842 (RSC Advances, 2021):
Where two headings read alike, the source gives them in different places.

Assays:
Test in all cases: SEC
SEC [1] = target: the molecule itself
SEC [2] = target: the molecule itself; remark: listed apart in the source
SEC [3] = target: the molecule itself; remark: listed apart in the source

Row | Protein | Ka (SEC [1]) [M⁻¹] | dH (SEC [1]) [kcal/mol] | dimer-to-monomer ratio after heating (SEC [2]) [%] | Ka (SEC [3]) [M⁻¹] | dH (SEC [3]) [kcal/mol]
1 | G80A/H81A (K3A2H) horse myoglobin (natural protein) GLSDGEWQQVLNVWGKVEADIAGHGQEVLIRLFTGHPETLEKFDKFKHLKTEAEMKASEDLKKHGTVVLTALGGILKKKAAHEAELKPLAQSHATKHKIPIKYLEFISDAIIHVLHSKHPGDFGADAQGAMTKALELFRNDIAAKYKELGFQG | 920000 | -30.8 ± 1.1 | 92 |  | 
2 | G80A/H81A/L137E (K3A2H-L137E) horse myoglobin (natural protein) GLSDGEWQQVLNVWGKVEADIAGHGQEVLIRLFTGHPETLEKFDKFKHLKTEAEMKASEDLKKHGTVVLTALGGILKKKAAHEAELKPLAQSHATKHKIPIKYLEFISDAIIHVLHSKHPGDFGADAQGAMTKALEEFRNDIAAKYKELGFQG |  |  | 97 | 9.4e+06 | -63.2 ± 5.1
3 | G80A/H81A/L137D (K3A2H-L137D) horse myoglobin (natural protein) GLSDGEWQQVLNVWGKVEADIAGHGQEVLIRLFTGHPETLEKFDKFKHLKTEAEMKASEDLKKHGTVVLTALGGILKKKAAHEAELKPLAQSHATKHKIPIKYLEFISDAIIHVLHSKHPGDFGADAQGAMTKALEDFRNDIAAKYKELGFQG |  |  | 98 | 2.3e+07 | -100 ± 4
